{"source": "the Human Domainome abundance scans (Beltran et al. 2025)", "parents": {"B1": {"name": "Gamma-crystallin S, residues 96 to 176; numbered along this chain, P22914 (parent)", "chain": "IQIFEKGDFSGQMYETTEDCPSIMEQFHMREIHSCKVLEGVWIFYELPNYRGRQYLLDKKEYRKPIDWGAASPAVQSFRRI"}}, "note": "± gives the uncertainty stated by the source."}
{"variants_of": "B1", "test": "abundance fitness (aPCA) (normalised: wild type 0, dead -1); higher = more abundant; growth selection in yeast, the domain comes from the species named", "conditions": "Homo sapiens"}
{"variant": "IQIFEKGDFSGQMYETTEDCPSIMEQFHMREIHSCKVLEGVWIFYELPNYRGRQYLLDKQEYRKPIDWGAASPAVQSFRRI", "note": "[K60Q]", "abundance fitness": "0.064 ± 0.28"}
{"variant": "IQIFEKGDFSGQMYMTTEDCPSIMEQFHMREIHSCKVLEGVWIFYELPNYRGRQYLLDKKEYRKPIDWGAASPAVQSFRRI", "note": "[E15M]", "abundance fitness": "-0.18 ± 0.1"}
{"variant": "IQIFEKGVFSGQMYETTEDCPSIMEQFHMREIHSCKVLEGVWIFYELPNYRGRQYLLDKKEYRKPIDWGAASPAVQSFRRI", "note": "[D8V]", "abundance fitness": "0.039 ± 0.036"}
{"variant": "IQIFEKGHFSGQMYETTEDCPSIMEQFHMREIHSCKVLEGVWIFYELPNYRGRQYLLDKKEYRKPIDWGAASPAVQSFRRI", "note": "[D8H]", "abundance fitness": "0.088 ± 0.083"}
{"variant": "IQIFEKGDFSGQMYETTEDCPSIMEQFHMREIHSCKVLEGVWIFYELPNIRGRQYLLDKKEYRKPIDWGAASPAVQSFRRI", "note": "[Y50I]", "abundance fitness": "-0.851 ± 0.12"}
{"variant": "IQIFEKGDFSGQMYETTEDCPSIMEQFHMREIHSCKVLEGVWIFYELPNHRGRQYLLDKKEYRKPIDWGAASPAVQSFRRI", "note": "[Y50H]", "abundance fitness": "-0.102 ± 0.051"}
{"variant": "IQIFEKGDFSGQMYETTEDCPSIMEQFHMREIHSCKVLEGVWIFYELPNYRGRQYLLDKKEYRKPIDWGAASPTVQSFRRI", "note": "[A74T]", "abundance fitness": "-0.159 ± 0.16"}
{"variant": "IQIFEFGDFSGQMYETTEDCPSIMEQFHMREIHSCKVLEGVWIFYELPNYRGRQYLLDKKEYRKPIDWGAASPAVQSFRRI", "note": "[K6F]", "abundance fitness": "0.099 ± 0.13"}
{"variant": "IQIFEKGDFSGQMYETTEDCPSIMEQFHMREIHSWKVLEGVWIFYELPNYRGRQYLLDKKEYRKPIDWGAASPAVQSFRRI", "note": "[C35W]", "abundance fitness": "-0.006 ± 0.047"}
{"variant": "IQIFEKGDFSGQMYETTEDCPSIMEQFHMREIHSLKVLEGVWIFYELPNYRGRQYLLDKKEYRKPIDWGAASPAVQSFRRI", "note": "[C35L]", "abundance fitness": "0.102 ± 0.042"}
{"variant": "IQIFEKGDFSGQMYETTEDCPSIMEQFHMREIHSGKVLEGVWIFYELPNYRGRQYLLDKKEYRKPIDWGAASPAVQSFRRI", "note": "[C35G]", "abundance fitness": "0.048 ± 0.033"}
{"variant": "IQIFEKGDFSGQMYETTEDCPSIMEQFHMREIHSHKVLEGVWIFYELPNYRGRQYLLDKKEYRKPIDWGAASPAVQSFRRI", "note": "[C35H]", "abundance fitness": "-0.769 ± 0.23"}
{"variant": "IQIFEKGDFSGQMYETTEDCPSIMEQFHMREIHSSKVLEGVWIFYELPNYRGRQYLLDKKEYRKPIDWGAASPAVQSFRRI", "note": "[C35S]", "abundance fitness": "0.052 ± 0.044"}
{"variant": "IQIFEKGDFSGQMYETTEDCPSIMEQFHMREIHSCKVLEGVWIFYELPNYRGRQYLLVKKEYRKPIDWGAASPAVQSFRRI", "note": "[D58V]", "abundance fitness": "0.023 ± 0.16"}
{"variant": "IQIFEKGDFSGQMYETTEDCPSIMEQFHMREIHSCKVLEGVWIFYELPNYRGRQYLLDKKEYRIPIDWGAASPAVQSFRRI", "note": "[K64I]", "abundance fitness": "-0.368 ± 0.35"}
{"variant": "IQIFEKGDFSGQMYETTEDCPSIMEQFHMREIHSCKVLEGVWIFYELPNYRGRQYLLDKKEYRRPIDWGAASPAVQSFRRI", "note": "[K64R]", "abundance fitness": "-0.146 ± 0.11"}
{"variant": "IQIFEKGDFSGQMYETTEDCPSIMEQFHMREIHSCNVLEGVWIFYELPNYRGRQYLLDKKEYRKPIDWGAASPAVQSFRRI", "note": "[K36N]", "abundance fitness": "-0.037 ± 0.12"}
{"variant": "IQIFEKGDFSGQMYETTEDCPSIMEQFHMREIHSCRVLEGVWIFYELPNYRGRQYLLDKKEYRKPIDWGAASPAVQSFRRI", "note": "[K36R]", "abundance fitness": "0.022 ± 0.035"}
{"variant": "IQIFEKGDFSGQMYETTEDCPSIMEQFHMREIHSCAVLEGVWIFYELPNYRGRQYLLDKKEYRKPIDWGAASPAVQSFRRI", "note": "[K36A]", "abundance fitness": "0.017 ± 0.045"}
{"variant": "IQIFEKGDFSGQMYETTEDCPSIMEQFHMREIHSCSVLEGVWIFYELPNYRGRQYLLDKKEYRKPIDWGAASPAVQSFRRI", "note": "[K36S]", "abundance fitness": "0.015 ± 0.048"}
{"variant": "IQIFEKGDFSGQMYETTEDCPSIMEQFHMREIHSCKVLEGVNIFYELPNYRGRQYLLDKKEYRKPIDWGAASPAVQSFRRI", "note": "[W42N]", "abundance fitness": "-0.445 ± 0.13"}
{"variant": "IQIFEKGDFSGQMYETTEDCPSIMEQFHMREIHSCKVLEGVKIFYELPNYRGRQYLLDKKEYRKPIDWGAASPAVQSFRRI", "note": "[W42K]", "abundance fitness": "-0.787 ± 0.19"}
{"variant": "IQIFEKGDFSGQMYETTEDCPSIMEQFHMREIHSCKVLEGVAIFYELPNYRGRQYLLDKKEYRKPIDWGAASPAVQSFRRI", "note": "[W42A]", "abundance fitness": "-0.157 ± 0.056"}
{"variant": "IQIFEKEDFSGQMYETTEDCPSIMEQFHMREIHSCKVLEGVWIFYELPNYRGRQYLLDKKEYRKPIDWGAASPAVQSFRRI", "note": "[G7E]", "abundance fitness": "-0.027 ± 0.061"}
{"variant": "IQIFEKMDFSGQMYETTEDCPSIMEQFHMREIHSCKVLEGVWIFYELPNYRGRQYLLDKKEYRKPIDWGAASPAVQSFRRI", "note": "[G7M]", "abundance fitness": "0.012 ± 0.07"}
{"variant": "IQIFEKGDFSGQMYETTEDCPSIMEQFHMREIHSCKVLEGVWISYELPNYRGRQYLLDKKEYRKPIDWGAASPAVQSFRRI", "note": "[F44S]", "abundance fitness": "-0.272 ± 0.055"}
{"variant": "IQIFEKGDFSGQMYETTEDCPSIMEQFHMREIHSCKVLEGVWIFYELPNYRGRCYLLDKKEYRKPIDWGAASPAVQSFRRI", "note": "[Q54C]", "abundance fitness": "-0.001 ± 0.1"}
{"variant": "IQIFEKGDFSGQMYETTEDCPSIMEQFHMREIHSCKVLEGVWIFYELPNYRGRQYLLDKKEYRKPIYWGAASPAVQSFRRI", "note": "[D67Y]", "abundance fitness": "-0.144 ± 0.27"}
{"variant": "IQIFEKGDFSGQMYETTEDCPSIMEQFHMREIHSCKVLEGVWIFYELPNYRGRQYLLDKKEYRKPIDWGACSPAVQSFRRI", "note": "[A71C]", "abundance fitness": "-0.048 ± 0.16"}
{"variant": "IQIFEKGDFSGQMYETTEDCPSIMEQFHMREIHSCKLLEGVWIFYELPNYRGRQYLLDKKEYRKPIDWGAASPAVQSFRRI", "note": "[V37L]", "abundance fitness": "0.023 ± 0.039"}
{"variant": "SQIFEKGDFSGQMYETTEDCPSIMEQFHMREIHSCKVLEGVWIFYELPNYRGRQYLLDKKEYRKPIDWGAASPAVQSFRRI", "note": "[I1S]", "abundance fitness": "-0.973 ± 0.078"}
{"variant": "IQIFEKGDISGQMYETTEDCPSIMEQFHMREIHSCKVLEGVWIFYELPNYRGRQYLLDKKEYRKPIDWGAASPAVQSFRRI", "note": "[F9I]", "abundance fitness": "-0.009 ± 0.083"}
{"variant": "IQIFEKGDFSGQMYETTEDCPSAMEQFHMREIHSCKVLEGVWIFYELPNYRGRQYLLDKKEYRKPIDWGAASPAVQSFRRI", "note": "[I23A]", "abundance fitness": "0 ± 0.055"}
{"variant": "IQIFEKGDFSGQMYETTEDCPSPMEQFHMREIHSCKVLEGVWIFYELPNYRGRQYLLDKKEYRKPIDWGAASPAVQSFRRI", "note": "[I23P]", "abundance fitness": "0.02 ± 0.093"}
